Test results taken from the supplement of paper PMC10567573.

B1: CHCHD3 (parent)
chain: YSGAYGASVSDEELKRRVAEELAL
B2: PTPRD (parent)
chain: ELDELLKEISRKRRSIRYGREVEL
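Further: lentivirally expressed fusions sorted by FACS into six bins by GFP to DsRed ratio, PSI derived from sequencing read proportions per bin multiplied by bin number.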

Variants of: B1
Experiment: protein stability index of a GFP-peptide fusion (GPS, HEK-293T) (PSI 1-6); higher = more stable
Settings: c terminus: a fixed tail appended
Variant E20N has a protein stability index of 2.15.
Variant E20T has a protein stability index of 2.26.
Variant E20K has a protein stability index of 2.9.
In the case of L14S, the protein stability index is reported as 2.31.
Work on L14R yielded a protein stability index of 2.25.
In the case of L14I, the protein stability index is reported as 2.41.
In the case of L14F, the protein stability index is reported as 2.53.
With L14M the protein stability index was 2.19.
In the case of E12G, the protein stability index is reported as 1.82.
E12M gave a protein stability index of 2.39.
E12A showed a protein stability index of 2.29.
Work on Y5K yielded a protein stability index of 4.14.
For Y5P, the protein stability index was 4.88.
In the case of Y5T, the protein stability index is reported as 5.01.
For Y1K, the protein stability index was 3.73.
Y1N showed a protein stability index of 4.71.
V18S gave a protein stability index of 2.42.
Work on V18K yielded a protein stability index of 2.38.
Work on A19N yielded a protein stability index of 3.53.
In the case of A19V, the protein stability index is reported as 3.43.
Variant R16T has a protein stability index of 3.04.
Variant R16D has a protein stability index of 3.66.
In the case of R16C, the protein stability index is reported as 1.92.
R16K showed a protein stability index of 2.65.
Variant R16M has a protein stability index of 2.74.
R16V gave a protein stability index of 2.17.
With R17F the protein stability index was 2.12.
With R17Q the protein stability index was 2.77.
Variant R17V has a protein stability index of 2.63.
V9Y showed a protein stability index of 1.94.
For V9G, the protein stability index was 3.06.
V9M gave a protein stability index of 2.7.
Variant A4Q has a protein stability index of 2.61.
Variant A4L has a protein stability index of 2.7.
A4G gave a protein stability index of 2.27.
In the case of E21M, the protein stability index is reported as 3.14.
Work on E21D yielded a protein stability index of 2.45.
Work on E21K yielded a protein stability index of 2.88.
For E21C, the protein stability index was 3.9.
For E21R, the protein stability index was 2.89.
In the case of L24I, the protein stability index is reported as 2.46.
Variant S10R has a protein stability index of 2.66.
S10I gave a protein stability index of 2.69.
S2P showed a protein stability index of 3.22.
S2Q gave a protein stability index of 3.46.
G3Y gave a protein stability index of 3.4.
G3Q showed a protein stability index of 3.96.
G3H showed a protein stability index of 4.1.
In the case of G3T, the protein stability index is reported as 2.9.
Variant D11F has a protein stability index of 2.27.
In the case of D11C, the protein stability index is reported as 2.39.
D11I showed a protein stability index of 2.29.
Work on D11M yielded a protein stability index of 3.01.
With D11E the protein stability index was 1.55.
G6M showed a protein stability index of 2.4.
Work on G6A yielded a protein stability index of 1.84.
Variant G6T has a protein stability index of 2.11.
In the case of G6P, the protein stability index is reported as 2.48.
K15E showed a protein stability index of 3.33.
In the case of E13R, the protein stability index is reported as 2.26.
In the case of E13D, the protein stability index is reported as 2.9.
E13I gave a protein stability index of 2.2.
E13M showed a protein stability index of 1.51.
With E13F the protein stability index was 2.49.
For E13S, the protein stability index was 2.26.
Variant A7V has a protein stability index of 2.56.
A7R showed a protein stability index of 2.77.
A7M showed a protein stability index of 2.94.
S8K gave a protein stability index of 3.2.
S8V gave a protein stability index of 1.78.
Variant A23E has a protein stability index of 2.86.
For A23S, the protein stability index was 2.19.
In the case of A23H, the protein stability index is reported as 2.71.

Variants of: B2
Experiment: as above
Settings: c terminus: a fixed tail appended
Variant L24T has a protein stability index of 2.86.
L24I showed a protein stability index of 2.42.
Variant L24K has a protein stability index of 2.33.
L24H gave a protein stability index of 2.91.
With L24E the protein stability index was 2.77.
L24P showed a protein stability index of 2.89.
Variant L24R has a protein stability index of 3.13.
L24V gave a protein stability index of 2.92.
With L24A the protein stability index was 2.69.
L24F gave a protein stability index of 2.55.
Work on L24Q yielded a protein stability index of 2.32.
Variant L24W has a protein stability index of 2.42.
L24D gave a protein stability index of 2.33.
In the case of L24M, the protein stability index is reported as 2.73.
In the case of L24G, the protein stability index is reported as 2.5.
For L24C, the protein stability index was 2.38.
L24N gave a protein stability index of 2.97.
For L24Y, the protein stability index was 2.54.
Work on L24S yielded a protein stability index of 2.69.
In the case of G19C, the protein stability index is reported as 2.7.
Variant G19Q has a protein stability index of 2.33.
Work on G19R yielded a protein stability index of 1.96.
G19Y showed a protein stability index of 2.1.
Variant G19S has a protein stability index of 2.04.
With G19L the protein stability index was 2.13.
With G19M the protein stability index was 2.41.
G19D showed a protein stability index of 2.22.
In the case of G19H, the protein stability index is reported as 2.41.
G19I gave a protein stability index of 2.05.
For G19N, the protein stability index was 2.47.
Variant G19W has a protein stability index of 2.9.
In the case of G19P, the protein stability index is reported as 2.17.
G19F showed a protein stability index of 1.71.
G19A gave a protein stability index of 2.34.
With G19V the protein stability index was 3.13.
With G19E the protein stability index was 2.71.
Work on G19K yielded a protein stability index of 2.06.
G19T gave a protein stability index of 2.37.
In the case of R11V, the protein stability index is reported as 3.18.
R11C gave a protein stability index of 2.94.
R11I gave a protein stability index of 2.45.
With R11W the protein stability index was 2.3.
Work on R11H yielded a protein stability index of 2.45.
R11Y gave a protein stability index of 2.62.
Work on R11M yielded a protein stability index of 2.15.
With R11K the protein stability index was 1.84.
With R11T the protein stability index was 3.21.
R11D showed a protein stability index of 4.06.
For R11Q, the protein stability index was 2.55.
R11E showed a protein stability index of 3.19.
For R11S, the protein stability index was 2.49.
In the case of R11L, the protein stability index is reported as 3.04.
In the case of R11P, the protein stability index is reported as 3.04.
In the case of R11F, the protein stability index is reported as 2.76.
R11N showed a protein stability index of 2.34.
Variant R11G has a protein stability index of 2.01.
Work on S15P yielded a protein stability index of 2.6.
S15D gave a protein stability index of 1.91.
With S15Y the protein stability index was 2.65.
S15H gave a protein stability index of 2.89.
For S15F, the protein stability index was 2.27.
In the case of S15E, the protein stability index is reported as 2.65.
Variant S15A has a protein stability index of 2.45.
S15R gave a protein stability index of 2.22.
In the case of S15T, the protein stability index is reported as 2.99.
For S15M, the protein stability index was 2.54.
Work on S15K yielded a protein stability index of 1.88.
Variant S15V has a protein stability index of 2.29.
For S15Q, the protein stability index was 3.4.
In the case of S15N, the protein stability index is reported as 2.65.
S15G showed a protein stability index of 2.44.
S15W gave a protein stability index of 1.59.
In the case of S15I, the protein stability index is reported as 2.29.
Variant S15L has a protein stability index of 2.04.
For R13T, the protein stability index was 2.28.
With R13A the protein stability index was 2.38.
In the case of R13W, the protein stability index is reported as 1.72.
Work on R13S yielded a protein stability index of 3.25.
R13E gave a protein stability index of 3.07.
Work on R13M yielded a protein stability index of 2.21.
With R13C the protein stability index was 1.8.
R13L showed a protein stability index of 1.46.
For R13N, the protein stability index was 3.
Work on R13H yielded a protein stability index of 2.14.
Variant R13F has a protein stability index of 2.06.
For R13Y, the protein stability index was 1.43.
R13Q gave a protein stability index of 2.36.
With R13K the protein stability index was 2.54.
In the case of R13D, the protein stability index is reported as 4.49.
R13P gave a protein stability index of 3.3.
R13G gave a protein stability index of 2.96.
Variant R13I has a protein stability index of 2.23.
With R13V the protein stability index was 1.55.
For E21A, the protein stability index was 2.16.
